Laboratory results from patent publication US20240409645A1 (DUALYX, published 2024).
Changes are numbered by the printed parent chain.

B1: FJ1427_P035MP07E11 (VHH)
VHH: QVQLVESGGGLVQAGGSLRLSCAASGRTLSRYAMGWFRQAPGKEREFVTANSWGGDTYYADSVQGRFTFSRDNAKNTVYLQMNSLQPEDTAVYYCAAAPTSFATTAYSSSNSYAYWGQGTQVTVSS
notes: Tested as soluble VHH fragment in periplasmic extract (P.E.); also called Clone nr
B2: FJ1427_P035MP07E12 (VHH)
VHH: B1 VHH with A60T, Q64E, T77A, A114T
notes: as for B1
B3: FJ1427_P035MP07A12 (VHH)
VHH: B1 VHH with V5Q, K43S, T49A, N51S, Y58F, Q64E, T77A, V92A, A103P
notes: as for B1
B4: FJ1427_P035MP07D12 (VHH)
VHH: B1 VHH with T28A, Y32L, T49V, N51S, G55D, Y58F, Q64K, E88G
notes: Tested as soluble VHH fragment in periplasmic extract (P.E.); also called Clone nr; 668
B5: FJ1427_P035MP07G11 (VHH)
VHH: B1 VHH with V5Q
notes: as for B1
B6: FJ1427_P035MP07F11 (VHH)
VHH: B1 VHH with Y32L, T49A, A50V, Y58F, Q64E, F69Y, N76S, T77A
notes: as for B1
B7: FJ1427_P035MP07B12 (VHH)
VHH: B1 VHH with Q1E, F47Y, T49A, A50I, N51D, Y58F, Q64E, T77E, A97G, A114R
notes: as for B1
B8: FJ1427_P035MP07C11 (VHH)
VHH: B1 VHH with G16A, T49A, N51S, Q64E, T77A, A97G
notes: as for B1
B9: FJ1427_P035MP07H11 (VHH)
VHH: QVQLVESGGGLVQPGGSLRLSCAASGRTLSRYAMGWFRQAPGKDREFVAASSWGGDTFYADSVEGRFTFSRDNAENATYLQMNSLQPEDTAVYYCAAAPTSFATTAYSSSNSYGSWGQGTQVTVSS
notes: Tested as soluble VHH fragment in periplasmic extract (P.E.); also called Clone nr; 664
B10: 35-MP07G01 VHH (periplasmic extract) (VHH)
VHH: QVQLQESGGGLVQGGGSLRLSCAASGGIFSSYAMGWFRQAPGKEREFVAAISRSGRSTNYADSVKGRFTISRDNAKSTVYLQMNSLKPEETAVYYCAAGRYYNSAYDPSPGDFGSWGHGTQVTVSS
notes: soluble VHH in periplasmic extract
B11: 22-MP03F12 VHH (periplasmic extract) (VHH)
VHH: EVQLVESGGGLVQAGGSLRLSCAASGSIFSINAMAWFRQVPGMERELVAAISRDGGASVYRDSVKGRFTISRDNSKNTVYLQMNTLKPEDTAIYVCAATRAIGWTARWITTDFDFWGQGTQVTVSS
notes: as for B10
B12: 26-MP06A07 VHH (periplasmic extract) (VHH)
VHH: QVQLQESGGGLVQAGGSLRLSCAASGDVFVRYTMAWFRQAPGKEREFVASVTDSGRTTEYVDSVKGRFTVSRDNAKNTAYLQMNNLKPEDTAIYYCAANTDYFQIRSLDLNTWGQGTQVTVSS
notes: as for B10
B13: 23-MP06F03 VHH (periplasmic extract) (VHH)
VHH: B12 VHH with Q5V, A24V, E59D, D62H, A79V, I93V, R106K, L110A
notes: as for B10
B14: FJ1427_P035MP07F12 (VHH)
VHH: EVQLVESGGGLVQAGDSLRLSCVASGRTLSRCAMGWFRKAPGKEREYVAISSWGGDTFYEDSVEGRFTFSRDNAKNTVYLQMNSLRPEDTAVYYCAAAPTSFATTAYSSSNSYAYWGQGTQVTVSS
notes: Tested as soluble VHH fragment in periplasmic extract (P.E.); also called Clone nr; 670
B15: 15-MP02E06 VHH (periplasmic extract) (VHH)
VHH: QVQLVESGGGSVQPGGSLRLSCAASGFTFSNYAMSWVRQAPGKGLEWVASITGFGRGTDYADSVKGRFTISRDNAEDTLYLQMNSLKPEDTAVYYCAKYSSSTYYPPTPARGRDYRGQGTQVTVSS
notes: as for B10
B16: 19-MP03F08 VHH (periplasmic extract) (VHH)
VHH: EVQLVESGGGLVQTGGSLRLSCAASGGTFSRDAMAWFRQVPGKEREFVALISWSGATTNYADSVKGRFAISRDNGKNTVYLQMNRLKPADTAIYYCAADRRPMGSRSYFEPTEYDDWGQGTQVTVSS
notes: as for B10
B17: 16-MP02B08 VHH (periplasmic extract) (VHH)
VHH: EVQLVESGGGLVQAGGSLRLSCAASGRAIENYPVGWFRQAPGKEREFVAAITWISGSTLYADSVKGRFTISRDNAKNTVYLQMSSLKPEDTALYYCAAALKTITRGQNDYSYWGQGTQVTVSS
notes: as for B10
B18: 24-MP06E05 VHH (periplasmic extract) (VHH)
VHH: QVQLVESGGELVQGGASLRLSCAASGRTFSNANMAWFRQAPEKEREFVALITWSSGSTLYADSVKGRFTISRDNARKMVYLQMNSLKPEDTAVYYCAADGPPYSGTYYRYDTYDYWGQGTQVTVSS
notes: as for B10
B19: FJ1427_P035MP07C12 (VHH)
VHH: QVQLVESGGGLVQAGGSLRLSCAASGRSLSRDAMGWFRQAPGKEREFVAVMSWGGDTFYTDSVEGRFTFSRDNAKNAVYLEMNDLQPEDTAVYYCAAAPTSFATTAYSSSNSYSYWGRGTQVTVSS
notes: as for B1
B20: 17-MP02C09 VHH (periplasmic extract) (VHH)
VHH: QVQLQESGGGLVQAGGSLRLSCVASGSVSSINGMAWYRQGADNQRVLVAAISRVGNTAYGDSVKGRFTISRQNARNTVYLQMNSLKPEDTAVYYCNADSWGGDDYWGQGTQVTVSS
notes: as for B10
B21: 20-MP03F10 VHH (periplasmic extract) (VHH)
VHH: EVQLVESGGGLVQAGGSLRLSCAASGRDFSSYAMGWFRQAPGKEREFVVAITWTKRSTDFPDSVKGRFTISRDNAKNTVYLDMNSLKPEDTAVYYCASARGLPVTPLGDIIYWGEGTLVTVSS
notes: as for B10
B22: 18-MP03C03 VHH (periplasmic extract) (VHH)
VHH: QVQLVESGGGLVQPGGSLRLSCAISGGTLDSYGIGWVRQAPGKQREGVSCMSRSDDRTYYADSVKGRFTISKDSAKNTVYLQMTSLKPEDTAVYYCAAVDAYGCSLVQPTTYDFWGLGTQVTVSS
notes: as for B10

Legend:
[1] = biological target: T1, human IL-2Rγ (common cytokine receptor γ-chain) (human, UniProt P31785 23-262, limits assumed); assay: binding ELISA, periplasmic extract on coated human IL-2Rγ
T1 construct: Recombinant human IL-2Rγ protein coated on the ELISA plate or immobilised on the CM5 chip; also called hu IL-2R; CD132
T1 sequence: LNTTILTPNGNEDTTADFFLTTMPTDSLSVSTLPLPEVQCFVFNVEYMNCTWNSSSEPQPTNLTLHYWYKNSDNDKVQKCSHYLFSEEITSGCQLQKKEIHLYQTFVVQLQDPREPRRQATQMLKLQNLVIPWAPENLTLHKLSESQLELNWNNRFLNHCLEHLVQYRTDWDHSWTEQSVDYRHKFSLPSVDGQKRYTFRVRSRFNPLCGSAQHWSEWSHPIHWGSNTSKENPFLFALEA
Method: (§1) In a binding ELISA, human or mouse IL-2Rα, IL-2Rβ and IL-2Rγ proteins were coated directly on maxisorp microtiter plates overnight at 4° C. Free binding sites were blocked using 4% Marvel in PBS for 1 hour. Next, 1:5 dilution of P.E. in 1% Marvel/PBS were added to wells and incubated for 1 hour. […] Binding specificity was determined based on O.D. at 450 nm values compared to negative controls.

[2] = biological target: T1, human IL-2Rγ (common cytokine receptor …); assay: SPR off-rate ranking, periplasmic extract over immobilised human IL-2Rγ
Method: (§2) SPR was performed to determine dissociation rates using Biacore 3000 instrument (GE Healthcare). Briefly, human and mouse IL-2R proteins were immobilized on carboxylmethyl dextran sensor chip (CM5) at approximately 2500 RUs using amine coupling in acetate buffer (GE Healthcare). The VHH-containing P.E. were loaded with a flow rate of 30 uL/min and the off-rates were measured over a 120s period.

mouse IL-2Rγ [3] = biological target: T2, mouse IL-2Rγ (mouse, UniProt P34902 23-263, limits assumed); assay: binding ELISA, periplasmic extract on coated mouse IL-2Rγ
T2 construct: Recombinant mouse IL-2Rγ protein coated on the ELISA plate or immobilised on the CM5 chip; also called mo IL-2R
T2 sequence (looked up): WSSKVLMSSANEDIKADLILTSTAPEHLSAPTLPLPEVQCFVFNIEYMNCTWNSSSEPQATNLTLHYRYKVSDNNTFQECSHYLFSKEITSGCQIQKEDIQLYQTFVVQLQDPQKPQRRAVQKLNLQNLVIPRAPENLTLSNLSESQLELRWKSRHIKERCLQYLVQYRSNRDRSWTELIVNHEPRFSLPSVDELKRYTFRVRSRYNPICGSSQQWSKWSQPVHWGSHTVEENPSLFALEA
Method: as §1

mouse IL-2Rγ [4] = biological target: T2, mouse IL-2Rγ; assay: SPR off-rate ranking, periplasmic extract over immobilised mouse IL-2Rγ
Method: as §2

[5] = biological target: T3, human common cytokine receptor γ-chain (γc; IL-2Rγ; CD132), recombinant protein (human, UniProt P31785 23-262); assay: P.E. binding ELISA
T3 construct: also called human IL-2R subunit CD132
T3 sequence: T1 sequence
Method in brief: (§3)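 Human or mouse IL-2Rα, IL-2Rβ or IL-2Rγ protein coated directly overnight at 4° C, blocked with 4% Marvel/PBS for 1 hour.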

[6] = biological target: T4, human interleukin-2 receptor β-chain (IL-2Rβ; CD122), recombinant protein (human, UniProt P14784 27-240); assay: P.E. off-rate SPR
T4 construct: also called human IL-2R subunit CD122
T4 sequence: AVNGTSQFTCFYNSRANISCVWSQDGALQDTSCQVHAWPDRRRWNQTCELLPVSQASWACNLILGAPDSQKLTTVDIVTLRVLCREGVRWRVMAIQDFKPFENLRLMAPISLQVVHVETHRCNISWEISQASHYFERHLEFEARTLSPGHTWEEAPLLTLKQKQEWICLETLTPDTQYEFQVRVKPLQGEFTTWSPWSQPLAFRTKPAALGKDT
Method in brief: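 Recombinant receptor was amine-coupled in acetate buffer onto a CM5 carboxymethyl dextran chip at approximately 2500 RU. VHH-containing periplasmic extracts were injected at 30 uL/min, and dissociation was followed for 120s to give off-rates.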

[7] = biological target: T4, human interleukin-2 receptor β-chain …; assay: P.E. binding ELISA
Method in brief: as §3

Row | Binder | P.E. binding ELISA OD450 [1] | koff [2] | P.E. binding ELISA OD450 (mouse IL-2Rγ [3]) | koff (mouse IL-2Rγ [4]) | OD450 nm [5] | koff [6] | OD450 nm [7]
1 | B1 | 0.398 OD450 nm | 0.00304 s⁻¹ | 0.045 OD450 nm | 0.109 s⁻¹ | – | – | –
2 | B2 | 0.956 OD450 nm | 0.00305 s⁻¹ | 0.05 OD450 nm | 0.0883 s⁻¹ | – | – | –
3 | B3 | 0.485 OD450 nm | 0.0027 s⁻¹ | – | – | – | – | –
4 | B4 | 0.511 OD450 nm | 0.00199 s⁻¹ | 0.051 OD450 nm | 0.0122 s⁻¹ | – | – | –
5 | B5 | 0.999 OD450 nm | 0.00351 s⁻¹ | 0.046 OD450 nm | 0.099 s⁻¹ | – | – | –
6 | B6 | 0.983 OD450 nm | 0.00131 s⁻¹ | 0.686 OD450 nm | 0.00757 s⁻¹ | – | – | –
7 | B7 | 1.79 OD450 nm | 0.00153 s⁻¹ | 0.7 OD450 nm | 0.00766 s⁻¹ | – | – | –
8 | B8 | 0.858 OD450 nm | 0.00485 s⁻¹ | – | – | – | – | –
9 | B9 | 1.32 OD450 nm | 0.00252 s⁻¹ | 0.057 OD450 nm | 0.066 s⁻¹ | – | – | –
10 | B10 | – | – | – | – | 0.134 OD450 nm | – | –
11 | B11 | – | – | – | – | – | 0.000419 s⁻¹ | 0.781 OD450 nm
12 | B12 | – | – | – | – | – | 0.000363 s⁻¹ | 1.03 OD450 nm
13 | B13 | – | – | – | – | – | 0.00105 s⁻¹ | 0.54 OD450 nm
14 | B14 | 0.823 OD450 nm | 0.00197 s⁻¹ | 0.341 OD450 nm | 0.00792 s⁻¹ | – | – | –
15 | B15 | – | – | – | – | – | 0.00169 s⁻¹ | 0.581 OD450 nm
16 | B16 | – | – | – | – | – | 0.000296 s⁻¹ | 0.245 OD450 nm
17 | B17 | – | – | – | – | – | 0.000141 s⁻¹ | 1.38 OD450 nm
18 | B18 | – | – | – | – | – | 0.000471 s⁻¹ | 0.355 OD450 nm
19 | B19 | 0.426 OD450 nm | 0.00197 s⁻¹ | 0.071 OD450 nm | 0.0146 s⁻¹ | – | – | –
20 | B20 | – | – | – | – | – | 0.000848 s⁻¹ | 1.21 OD450 nm
21 | B21 | – | – | – | – | – | 0.000595 s⁻¹ | 0.497 OD450 nm
22 | B22 | – | – | – | – | – | 0.000594 s⁻¹ | 0.405 OD450 nm
